Assay results taken from patent US20250136677A1 (ZOETIS SERVICES, published 2025).
Changes are numbered by the printed parent chain. Names and notes keep the numbering of the source.

T1: wildtype feline IL-31 protein (Feline_IL31_wildtype) (feline)
T1 construct: Full length feline IL-31 with C-terminal His tag, secreted from ExpiCHO cells; also called fIL-31
T1 chain: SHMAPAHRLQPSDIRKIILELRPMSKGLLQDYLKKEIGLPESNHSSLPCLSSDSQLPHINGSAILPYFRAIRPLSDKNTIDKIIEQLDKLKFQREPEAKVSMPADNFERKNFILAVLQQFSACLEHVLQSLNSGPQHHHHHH

T2: canine IL-31 protein (Canine_IL31) (canine)
T2 chain: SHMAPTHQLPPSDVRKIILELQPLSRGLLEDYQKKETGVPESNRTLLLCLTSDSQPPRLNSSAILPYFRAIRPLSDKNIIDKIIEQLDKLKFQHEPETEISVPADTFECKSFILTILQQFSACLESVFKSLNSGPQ

B1: Feline 15H05 1.1 FW2 (antibody, V domains shown)
VH: QVLLVQSGAEVRTPGASVKIFCKASGYSFTSYTIHWLRQAPAQGLEWMGNINPTSGYTENNQRFKDRLTLTADTSTNTAYMELSSLRSADTAMYYCARWGFKYDGEWSFDVWGAGTTVTVSS
VL: EIQMTQSPSSLSASPGDRVTITCRASQGISIWLSWYQQKPGNIPKVLINKASNLHIGVPSRFSGSGSGTDFTLTISSLEPEDAATYYCLQSQTYPLTFGGGTKLEIK
notes: also called felinized 15H05 1.1 FW2
B2: Feline 15H05 1.1 (antibody, V domains shown)
VH: B1 VH
VL: B1 VL with N42K, I43V, V46L, N49Y
notes: Feline heavy and kappa constant regions
B3: Feline 15H05 1.1 FW1 (antibody, V domains shown)
VH: B1 VH
VL: B1 VL with E1D, T5N, P15L, R18T, V19I, I21V, N42K, I43V, V46L, N49Y
B4: Feline 15H05 1.1 FW1_2 (antibody, V domains shown)
VH: B1 VH
VL: B1 VL with E1D, T5N, P15L, R18T, V19I, I21V
B5: Feline 15H05 1.1 FW2_3 (antibody, V domains shown)
VH: B1 VH
VL: B1 VL with S60P, D70H, S76T, E79Q, A83I
B6: Feline 15H05 1.1 FW3 (antibody, V domains shown)
VH: B1 VH
VL: B1 VL with N42K, I43V, V46L, N49Y, S60P, D70H, S76T, E79Q, A83I
B7: Feline 15H05 1.1 K42N (antibody, V domains shown)
VH: B1 VH
VL: B1 VL with I43V, V46L, N49Y
B8: Feline 15H05 1.1 K42N_V43I (antibody, V domains shown)
VH: B1 VH
VL: B1 VL with V46L, N49Y
B9: Feline 15H05 1.1 L46V (antibody, V domains shown)
VH: B1 VH
VL: B1 VL with N42K, I43V, N49Y
B10: Feline 15H05 1.1 V43I (antibody, V domains shown)
VH: B1 VH
VL: B1 VL with N42K, V46L, N49Y
B11: Feline 15H05 1.1 Y49N (antibody, V domains shown)
VH: B1 VH
VL: B1 VL with N42K, I43V, V46L
B12: Feline 15H05 2.1 (antibody, V domains shown)
VH: B1 VH with S28G, L37V, A40S
VL: B1 VL with N42K, I43V, V46L, N49Y
notes: as for B2
B13: Feline 15H05 3.1 (antibody, V domains shown)
VH: B1 VH with T13K, A42E
VL: B1 VL with N42K, I43V, V46L, N49Y
notes: as for B2
B14: Feline 15H05 VH1 mouse VL (antibody, V domains shown)
VH: B1 VH
VL: DIQMNQSPSSLSASLGDTITVTCRASQGISIWLSWYQQKPGNIPKVLINKASNLHIGVPPRFSGSGSGTHFTLTITSLQPEDIATYYCLQSQTYPLTFGGGTKLEIN
notes: Heterochimeric antibody; also called felinized 15H05 VH1 with mouse 15H05 VL (heterochimera)
B15: Feline 15H05 VH2 mouse VL (antibody, V domains shown)
VH: B1 VH with S28G, L37V, A40S
VL: B14 VL
notes: also called felinized 15H05 VH2 with mouse 15H05 VL (heterochimera)
B16: Feline 15H05 VH3 mouse VL (antibody, V domains shown)
VH: B1 VH with T13K, A42E
VL: B14 VL
notes: Heterochimeric antibody; also called felinized 15H05 VH3 with mouse 15H05 VL (heterochimera)
B17: Feline 15H05 1.1 FW1_3 (antibody, V domains shown)
VH: B1 VH
VL: B14 VL with N42K, I43V, V46L, N49Y, N107K
notes: Printed as 'Feline 15H05 1.1 FW13'
B18: Feline_11E12 1.1_K46Q (antibody, V domains shown)
VH: QVLLVQSGAEVKKPGASVKIFCKASGYSFTYYDINWLRQAPEQGLEWMGWIFPGDGGTKYNETFKGRLTLTADTSTNTVYMELSSLRSADTAMYYCARGGTSVIRDAMDYWGQGALVTVSS
VL: EIQMTQSPSSLSASPGDRVTITCRASESVDNYGISFMHWYQQKPGQVPKLLIYRASNLESGVPSRFSGSGSGTDFTLTISSLEPEDAATYYCQQSNKDPLTFGQGTKLEIK
notes: felinized 11E12 with the single VL substitution K46Q; copies: 2 + 2
B19: Feline 15H05 1.2 (antibody, V domains shown)
VH: B1 VH
VL: EITMTQSPGSLAGSPGQQVTMNCRASQGISIWLSWYQQKPGQHPKLLIYKASNLHIGVPDRFSGSGSGTDFTLTISNLQAEDVASYYCLQSQTYPLTFGGGTKLEIK
notes: as for B2
B20: Feline 15H05 2.3 (antibody, V domains shown)
VH: B1 VH with S28G, L37V, A40S
VL: EVVLTQSSAFLSRTLKEKATITCRASQGISIWLSWYQQKPNQAPKLLVKKASNLHIGAPSRFSGSGSGTDFTLTISSPEPEDAATYYCLQSQTYPLTFGGGTKLGDQ
notes: as for B2
B21: Feline 15H05 3.3 (antibody, V domains shown)
VH: B1 VH with T13K, A42E
VL: B20 VL
notes: as for B2

Biological target: T1, wildtype feline IL-31 protein …
Test: SPR (Biacore), IL-31 on chip, 1:1 fit
Procedure: The affinity with which candidate mAbs bind canine and feline IL-31 was determined using surface plasmon resonance (SPR) on a Biacore system (Biocore Life Sciences (GE Healthcare), Uppsala, Sweden). To avoid affinity differences associated with differential surface preparation that can occur when immobilizing antibodies to surfaces; a strategy was employed where IL-31 was directly conjugated to the surface. Immobilization was obtained by amine coupling 5 μg/mL IL-31 using N-hydroxysuccinimide (NHS)/1-Ethyl-3-(3-dimethylaminopropyl) carbodiimide (EDC) chemistry. Chips were quenched with ethanolamine and the affinity with which all candidate mAbs bound to the immobilized IL-31 was evaluated. All curves were fit to a 1:1 model. […] Results for affinity measurements are described herein.

| Binder | Kd | koff | kon |
| --- | --- | --- | --- |
| B1 | 0.065 nM | 2.49e-05 s⁻¹ | 383000 M⁻¹ s⁻¹ |
| B2 | 13.5 nM | 0.00131 s⁻¹ | 97100 M⁻¹ s⁻¹ |
| B3 | 564 nM | 0.00286 s⁻¹ | 5060 M⁻¹ s⁻¹ |
| B4 | 0.887 nM | 6.7e-06 s⁻¹ | 7560 M⁻¹ s⁻¹ |
| B5 | 123 nM | 0.00116 s⁻¹ | 9490 M⁻¹ s⁻¹ |
| B6 | 0.0564 nM | 1.21e-05 s⁻¹ | 214000 M⁻¹ s⁻¹ |
| B7 | 6770 nM | 0.011 s⁻¹ | 1630 M⁻¹ s⁻¹ |
| B8 | 9.42 nM | 0.0022 s⁻¹ | 234000 M⁻¹ s⁻¹ |
| B9 | 22.8 nM | 0.000811 s⁻¹ | 35500 M⁻¹ s⁻¹ |
| B10 | 13.6 nM | 0.000401 s⁻¹ | 29400 M⁻¹ s⁻¹ |
| B11 | 39.5 nM | 0.00095 s⁻¹ | 24000 M⁻¹ s⁻¹ |
| B12 | 22.3 nM | 0.00465 s⁻¹ | 208000 M⁻¹ s⁻¹ |
| B13 | 37.1 nM | 0.00166 s⁻¹ | 44700 M⁻¹ s⁻¹ |
| B14 | 0.168 nM | 2.2e-05 s⁻¹ | 131000 M⁻¹ s⁻¹ |
| B15 | 1.61 nM | 5.47e-05 s⁻¹ | 34000 M⁻¹ s⁻¹ |
| B16 | 0.177 nM | 1.57e-05 s⁻¹ | 88900 M⁻¹ s⁻¹ |
| B17 | 0.0674 nM | 3.02e-05 s⁻¹ | 448000 M⁻¹ s⁻¹ |
| B18 | 12.6 nM | 0.000145 s⁻¹ | 11500 M⁻¹ s⁻¹ |
| B19 | 104 nM | 0.00147 s⁻¹ | 14100 M⁻¹ s⁻¹ |
| B20 | 1.57 nM | 0.000535 s⁻¹ | 341000 M⁻¹ s⁻¹ |
| B21 | 11.6 nM | 0.000886 s⁻¹ | 76300 M⁻¹ s⁻¹ |

Biological target: T2, canine IL-31 protein (Canine_IL31)
Test: SPR (Biacore), IL-31 on chip, 1:1 fit

| Binder | koff | kon | Kd |
| --- | --- | --- | --- |
| B1 | 1.66e-07 s⁻¹ | 384000 M⁻¹ s⁻¹ |  |
| B2 | 1.36e-07 s⁻¹ | 27000 M⁻¹ s⁻¹ |  |
| B3 | 0.0156 s⁻¹ | 19200 M⁻¹ s⁻¹ |  |
| B4 | 3.82e-06 s⁻¹ | 6910 M⁻¹ s⁻¹ |  |
| B5 | 0.00193 s⁻¹ | 9050 M⁻¹ s⁻¹ |  |
| B6 | 3.91e-07 s⁻¹ | 3000 M⁻¹ s⁻¹ | 0.13 nM |
| B12 | 0.000866 s⁻¹ | 525000 M⁻¹ s⁻¹ |  |
| B13 | 2.11e-05 s⁻¹ | 26500 M⁻¹ s⁻¹ |  |
| B14 | 2.66e-07 s⁻¹ | 108000 M⁻¹ s⁻¹ |  |
| B15 | 0.000379 s⁻¹ | 171000 M⁻¹ s⁻¹ |  |
| B16 | 2.64e-07 s⁻¹ | 100000 M⁻¹ s⁻¹ |  |
| B17 | 2.88e-08 s⁻¹ | 6590 M⁻¹ s⁻¹ |  |
| B18 | 8.85e-05 s⁻¹ | 46400 M⁻¹ s⁻¹ |  |
| B19 | 0.000115 s⁻¹ | 33000 M⁻¹ s⁻¹ |  |
